Laboratory results taken from patent publication US20240026407A1, “MODIFICATION OF SAPONINS” (GLAXOSMITHKLINE BIOLOGICALS SA, priority 2020, published 2024).

How the values were obtained:
[1] = Example 10: deglucosylation of saponins in crude bark extract (50%) using WT and engineered glucosidases G1 to G5; format: biochemical, Quillaja saponaria; conditions: 7 h, 50% CBE, 35 degC; for % Right Peak: starting CBE 26; for % Left Peak: starting CBE 30; for % Middle Peak: starting CBE 44
Procedure: Lyophilised powders from clarified cell lysate expressing glucosidases (from Example 8 WT glucosidase and engineered glucosidase polypeptides G1 to G5) and rhamnosidases (from Example 9 WT rhamnosidase and engineered rhamnosidase polypeptides R1 to R5) were dissolved in 200 mM sodium acetate aqueous solution at pH 5.8 to prepare the enzyme solutions at 4 fold the final reaction concentration as shown in Tables 19 and 20.
Each glucosidase solution was combined with an equal volume of 200 mM sodium acetate aqueous solution at pH 5.8 and separately with an equal volume of 200 mM sodium acetate aqueous solution at pH 5.8 containing 2 mg/ml rhamnosidase R5. This is a sufficient loading of rhamnosidase to effect complete hydrolysis of the relevant rhamnose moiety within 4 hours.
CBE was adjusted to pH of 6.0 to 6.2 with 2M sodium hydroxide and an equal volume added to the enzyme solution to prepare the reaction mix (i.e. 50% CBE concentration in reaction mix) and the concentration of glucosidase and/or rhamnosidase is shown in Tables 19 and 20. The reaction mix was heated to 35 degC for the time indicated in Tables 19 and 20, after which the reaction was quenched by addition of an equal volume of MeCN containing 2% acetic acid and shaken at room temperature for 10 mins prior to centrifugation (10 min, 4 degC) to remove particulates. Samples were analysed by UV HPLC using method of Experiment 4-4.
The change in composition of the Left, Middle and Right peaks is shown in Tables 19 and 20. The composition changes by the action of the enzymes depending on the presence or absence of the partner enzyme. The extent of reaction is proportional to the enzyme concentration and the reaction time under these conditions. The tables show data for enzyme concentrations and the reaction times providing for equivalent extents of reaction. The improvement resulting from the mutations introduced for each variant is equal to the fold change in enzyme concentration×time (i.e. fold improvement=(enzyme concentration×time) for preceding variant÷(enzyme concentration×time) for later variant). A cumulative fold improvement over the original enzyme variant is calculated by the product of the individual fold improvements.

[2] = Example 8: screening of glucosidase variants for deglycosylation of saponins in crude bark extract (FIOP); format: biochemical, Quillaja saponaria; conditions: screen temp 35, pH 6, lysate loading 20%, CBE loading 80%, 100 mM Potassium phosphate, Rham None
Procedure: Libraries of genetic variants encoding mutations in the wild type Modestobacter marinus glucosidase (SEQ ID No. 262) were prepared using molecular biology techniques, enzymes were prepared linked to an N-terminally located His-tag. Single monoclonal colonies were grown in 400 ul of expression medium and protein expressed. Cell pellets were lysed in 200 ul of the relevant buffer (Table 16)
Lysate was diluted appropriately in the relevant buffer to allow a lysate loading of the indicated % loading (1% loading corresponds to use of 2 ul original lysate in a 200 ul reaction). In some experiments a rhamnosidase was also present during the screening reaction (and also in controls, negating any impact on results).
Crude bark extract (CBE) obtained by aqueous extraction of Quillaja saponaria and containing at least 2.80 mg/ml QS-21 (by HPLC-UV). The pH of CBE was adjusted to pH 6 by dropwise addition of 2M NaOH with stirring. The relevant concentration of the relevant glucosidase was added. The appropriate relative volume of pH 6 CBE (160 ul (for 80%) or 150 ul (for 75%)) was added to each well of the reaction plate. The reaction plate was sealed and incubated at the relevant temperature with shaking overnight for between 18 and 22 hours.
The reaction plate was quenched by adding 200 uL of MeCN (2% AcOH, 1 mg/mL hexanophenone) to each well of the plates. The quenched reaction plate was re-sealed and incubated at 20 deg C. with shaking for 10 min. The reaction plate was then centrifuged (10 min, 4 degC).
200 uL was transferred from each well of the quenched plate to the corresponding wells of a fresh 96 well plate and sealed. The plate was analysed by UV HPLC with the method below:
A negative control (a lysate not expressing test enzymes) and a positive control (expressing the parent comparator—wild type or previous variant as appropriate). Fold improvement over parent (FIOP) for the glucosidase (shorter method) is calculated as follows:
% right peak=100*right peak area/(right peak area+left peak area)
Average % right peak area is calculated for negative controls (per plate) and subtracted from all wells to give the increase in % right peak for each well above average negative control Average increase in % right peak is calculated for positive controls per plate
FIOP=observed increase in % right peak divided by average positive control increase

[3] = glucosidase 6.25 mg/ml + rhamnosidase R5 0.5 mg/ml
[4] = glucosidase 6.25 mg/ml, no rhamnosidase

- Cumulative Fold improvement in primary enzyme loading × time [1, 3]: 8
- Fold improvement in primary enzyme loading × time [1, 3]: 8.0
- Cumulative Fold improvement in primary enzyme loading × time [1, 4]: 8
- Fold improvement in primary enzyme loading × time [1, 4]: 8.0
B1: Variant G1: engineered glucosidase polypeptide, variant of Modestobacter marinus glucosidase SEQ ID No. 262 (protein)
chain: MNPASSTRTDTMTDTTARTDSRLTDALAALSLEQKVQLLTGRDFWNTWPIEEIGLRRILVSDGPSGVRGEVWDERDPSLNLPSATALASAWDPDIARRYGAAAAVEARRKGVDVVLGPTINLHRSPLGGRHFEAFSEDPVLTAELAAAYVTGVQDNGVGATPKHYVANDFETDRFTVDVRADERTLRELYLLAFEKAVTEARAWLVMSAYNGINGATATENDLLETPLNSEWGFDGVVVSDWTAVRSLESARSSQDLVMPGPVGPWGDALVEAVRTGAIDESVVDRKVLRILTLAQRVGALEGSPAIDPVWVEDGVALAREAAVEGTVLLENRDELPWDATSLRKVAVIGNNAAAARTQGGGSANVLPEYTVSPLDGVRAALPDAEVSYSLGAVVQDGLVELPLAELTNPVTGGPGLRARFLTADGAELFGEDRRKSVLVYFGGDAPIAAAATYELTARWTPTESQTVRLGFALIGAAQLYVDGELLVESDLQPSGTDLGAAFMNPLTASAEVELVAGKPVDVRLVHDLSAKEGFAAHALFLQLGTEPAEVDEDALIAEAAEAAEAADVVLVVVGTNSIVESEGYDRESLSLPGRQDDLVRAVVAANPRTVVLVNAGAPVLLPWRDDVAALLLGWFGGQEFGNAVADVLLGVAEPGGRLPTTWPAAEADVPVLSCTPVDGVVEYTEGIHIGYRAWLRSGATPAYWFGSGQGYTCVELTGVEAPSRARPGEIVTVSVEVANRGERDGKQVVQVYAEKPDSTVDRPVRWLVGSAPVRVPAGQTAQVEVAVPTRYLAHWAGGWQYEPGVYRLRVGTTAVELPLETTLEVSA
modifications: Seq ID No. 262 with mutation T365N
- % change in Left Peak [1, 3]: −39%
- % change in Middle Peak [1, 3]: −64%
- % change in Right Peak [1, 3]: 253%
- % Right Peak [1, 3]: 66%
- % Left Peak [1, 3]: 18%
- % Middle Peak [1, 3]: 16%
- % change in Left Peak [1, 4]: −8%
- % change in Middle Peak [1, 4]: −59%
- % change in Right Peak [1, 4]: 209%
- % Right Peak [1, 4]: 54%
- % Left Peak [1, 4]: 28%
- % Middle Peak [1, 4]: 18%
- Cumulative FIOP (cf WT) ([2]; estimate): 5
- FIOP ([2]; fold improvement over parent): 5
